Laboratory results reported in paper PMC8298602, “14-3-3-protein regulates Nedd4-2 by modulating interactions between HECT and WW domains” (Communications Biology, 2021).

T1: 14-3-3η (Homo sapiens, UniProt Q04917)
T1 sequence (Q04917 1-246): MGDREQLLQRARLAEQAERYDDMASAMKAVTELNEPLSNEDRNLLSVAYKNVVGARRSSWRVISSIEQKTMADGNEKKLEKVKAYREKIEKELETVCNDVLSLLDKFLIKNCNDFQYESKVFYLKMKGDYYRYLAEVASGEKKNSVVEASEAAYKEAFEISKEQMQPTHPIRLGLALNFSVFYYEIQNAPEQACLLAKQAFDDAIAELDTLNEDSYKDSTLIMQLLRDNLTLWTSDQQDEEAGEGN

B1: Nedd4-2^186–975: N-terminally truncated human Nedd4-2, missing the C2 domain (protein)
chain: HQEELPPPPLPPGWEEKVDNLGRTYYVNHNNRTTQWHRPSLMDVSSESDNNIRQINQEAAHRRFRSRRHISEDLEPEPSEGGDVPEPWETISEEVNIAGDSLGLALPPPPASPGSRTSPQELSEELSRRLQITPDSNGEQFSSLIQREPSSRLRSCSVTDAVAEQGHLPPPSAPAGRARSSTVTGGEEPTPSVAYVHTTPGLPSGWEERKDAKGRTYYVNHNNRTTTWTRPIMQLAEDGASGSATNSNNHLIEPQIRRPRSLSSPTVTLSAPLEGAKDSPVRRAVKDTLSNPQSPQPSPYNSPKPQHKVTQSFLPPGWEMRIAPNGRPFFIDHNTKTTTWEDPRLKFPVHMRSKTSLNPNDLGPLPPGWEERIHLDGRTFYIDHNSKITQWEDPRLQNPAITGPAVPYSREFKQKYDYFRKKLKKPADIPNRFEMKLHRNNIFEESYRRIMSVKRPDVLKARLWIEFESEKGLDYGGVAREWFFLLSKEMFNPYYGLFEYSATDNYTLQINPNSGLCNEDHLSYFTFIGRVAGLAVFHGKLLDGFFIRPFYKMMLGKQITLNDMESVDSEYYNSLKWILENDPTELDLMFCIDEENFGQTYQVDLKPNGSEIMVTNENKREYIDLVIQWRFVNRVQKQMNAFLEGFTELLPIDLIKIFDENELELLMCGLGDVDVNDWRQHSIYKNGYCPNHPVIQWFWKAVLLMDAEKRIRLLQFVTGTSRVPMNGFAELYGSNGPQLFTIEQWGSPEKLPRAHTCFNRLDLPPYETFEDLREKLLMAVENAQGFEGVD
modifications: phosphoserine at 342, phosphothreonine at 367, phosphoserine at 448 (PKA in vitro, confirmed by LC-MS); left off: His6, C-terminal, kept
notes: N-terminally truncated human Nedd4-2, missing the C2 domain
B2: pNedd4-2^335–455: shorter Nedd4-2 variant missing both the C2 and the HECT domains, all three phosphorylation sites (protein)
chain: SSRLRSCSVTDAVAEQGHLPPPSAPAGRARSSTVTGGEEPTPSVAYVHTTPGLPSGWEERKDAKGRTYYVNHNNRTTTWTRPIMQLAEDGASGSATNSNNHLIEPQIRRPRSLSSPTVTLS
modifications: phosphoserine at 342, phosphothreonine at 367, phosphoserine at 448; left off: His6, N-terminal, cleaved | GB1 domain of protein G, N-terminal, cleaved
notes: shorter Nedd4-2 variant missing both the C2 and the HECT domains, all three phosphorylation sites

Assays:
14-3-3η [1] = molecular target: T1, 14-3-3η; assay: SV-AUC (sedimentation velocity analytical ultracentrifugation), sw isotherm binding analysis; details: 300 nM pNedd4-2^186–975 with 0.06−6 μM 14-3-3η, A + B ⇌ AB (Langmuir) model, one pNedd4-2 per 14-3-3η dimer, 50 mM Tris-HCl pH 8.0, 500 mM NaCl, 1 mM TCEP, 0.01% Tergitol NP-40, 20 °C, read-out: apparent KD
Experimental: Solution properties of Nedd4-2^186–975 and its interactions with 14-3-3 were characterized by sedimentation velocity analytical ultracentrifugation (SV AUC).
Sedimentation velocity (SV) experiments were performed using a ProteomLab^TM XL-I, Beckman Coulter analytical ultracentrifuge. The samples were dialyzed against a buffer containing 20 mM Tris-HCl (pH 7.5), 150 mM NaCl, and 1 mM TCEP before analysis. The samples with the longer construct of Nedd4-2^186–975 were dialyzed against a buffer containing 50 mM Tris-HCl (pH 8.0), 500 mM NaCl, 1 mM TCEP and 0.01% (v/v) Tergitol NP-40 (Sigma). […] The buffer density, viscosity, and partial specific volume of all proteins were estimated using the program […]. All sedimentation profiles were collected with absorbance optics at 280 nm. The sedimentation coefficients c(s) distributions were calculated from raw data using the SEDFIT software package. The calculated distributions were integrated to establish the weight-average sedimentation coefficients corrected to 20 °C and the density of water, sw(20,w). […] The resulting isotherms were fitted with a A + B ⇌ AB model, as implemented in the SEDPHAT software package with previously known sw values of each component. The parameters were verified, and the loading concentrations were corrected using global Lamm-equation modeling, also implemented in the SEDPHAT software[66]

14-3-3η [2] = molecular target: T1, 14-3-3η; assay: native TBE-PAGE complex formation with 14-3-3η; format: binding; details: 12% native TBE-PAGE, 240 pmol 14-3-3η and 120 pmol Nedd4-2 variant
Experimental: Based on our estimates, the KD value was lower than 50 nM, as further confirmed by global modeling. TEXT PRINTED IN THE PICTURE: (d) no label printed: KD < 50 nM
Fig. 3 Simultaneous phosphorylation of two 14-3-3 binding motifs pSer342 and pSer448 is required for tight complex formation between pNedd4-2^335–455 and 14-3-3η. a 12% Native TBE-PAGE showing the interaction between 14-3-3η (240 pmol) and Nedd^335–455 variants without (no pS) or with one, two or three phosphorylation sites (120 pmol); 14-3-3η protein alone was loaded on the penultimate lane. b–i Sedimentation velocity analytical ultracentrifugation analysis of the complexes between 14-3-3η and pNedd4-2^335–455 variants showing the sw isotherms of 14-3-3η and Nedd4-2 with all three phosphorylation sites pSer^342 + pThr^367 + pSer^448 (b), with no phosphorylation sites (c), with one phosphorylation site (pSer^342 (d), pThr^367 (e) and pSer^448 (f)), or with two phosphorylation sites (pSer^342 + pThr^367 (g), pSer^342 + pSer^448 (h) and pThr^367 + pSer^448 (i)). […] The c(s) distributions underlying the sw data points are shown in Supplementary Fig. S3.

[3] = SEC-SAXS structural parameters; format: physicochemical; details: for Rg (Guinier approximation): 20 mM Tris-HCl pH 7.5, 150 mM NaCl, 1 mM TCEP, 3% glycerol
Experimental: SAXS data were collected on the European Molecular Biology Laboratory (EMBL) P12 beamline, at the storage ring PETRA III (Deutsches Elektronen Synchrotron (DESY), Hamburg, Germany). The SEC-SAXS measurements were conducted in a buffer containing 20 mM Tris-HCl (pH 7.5), 150 mM NaCl, 1 mM TCEP, 3% (w/v) glycerol using Superdex 200 Increase 5/150 GL column (GE Healthcare) at the flow rate 0.5 ml.min^−1 at 293.15 K.
The loading concentrations of the samples were 2.2 mg.ml^−1 for Nedd4-2^186–975, 2 mg.ml^−1 for 14-3-3η and 8.9 mg.ml^−1 for the Nedd4-2^186–975:14-3-3η complex (1:2 molar stoichiometry). The injection volume of the samples was 52 μl. Elution profiles with the corresponding frames were processed using ATSAS 3.0.2 software CHROMIXS[71]. ATSAS software PRIMUS and GNOM were used to determine the excluded volume of the hydrated particle (Vp), the radius of gyration (Rg) and maximum particle dimension (Dmax)[72],[73]. The molecular mass (MW) was determined using a methods described by Rambo et al.[74]. Scattering profiles, P(r) functions, normalized Kratky plots and Guinier approximations were visualized using GraphPad Prism version 8.0.1 for Windows (GraphPad Software, La Jolla California USA, www.graphpad.com). The program DAMMIF was used to calculate the ab inicio molecular envelopes. For the complex, 10 surfaces were generated in slow mode and averaged using DAMAVER[76]. The averaged surfaces were used as the final filtered model of the complex, which was superimposed to the structural model using the SUPCOMB program (EMBL, Hamburg, Germany)[77].

[4] = tested on: all human 14-3-3 protein isoforms; assay: native TBE-PAGE isoform binding specificity; details: 12% TBE-PAGE, 128 pmol 14-3-3 and 64 pmol pNedd4-2^335–455
Experimental: In addition, we prepared pNedd4-2^335–455 to characterize 14-3-3 isoform binding specificity.
Supplementary Fig. S2. Characterization of the interaction between Nedd4-2 and 14-3-3 in solution. a Continuous sedimentation coefficient distributions (c(s)) of 10 μM pNedd4- […]
mixed at 1:2 (cyan) and 1:1 (green) molar ratios. The protein concentrations were 10 μM for 14335-455 335-455-3-3ε and 5 μM or 10 μM for pNedd4335-455 -2 . b Isoform binding specificity of pNedd4-2 .
Phosphorylated pNedd4-2 , 14-3-3 proteins and their complexes were separated by 12% TBE-PAGE to study the interaction of pNedd4-2335-455 with all seven human 14-3-3 isoforms (β, γ, ε, δ, ε, σ, and τ). The amounts of protein loaded on the native gel were 128 pmol of 14335-455 -3-3 and […]
(1 picture or pasted object on this page, not shown here)

[5] = SV-AUC continuous sedimentation coefficient distributions c(s); format: physicochemical
Experimental: Sedimentation velocity (SV) experiments were performed using a ProteomLab^TM XL-I, Beckman Coulter analytical ultracentrifuge. The samples were dialyzed against a buffer containing 20 mM Tris-HCl (pH 7.5), 150 mM NaCl, and 1 mM TCEP before analysis. The samples with the longer construct of Nedd4-2^186–975 were dialyzed against a buffer containing 50 mM Tris-HCl (pH 8.0), 500 mM NaCl, 1 mM TCEP and 0.01% (v/v) Tergitol NP-40 (Sigma). […] The buffer density, viscosity, and partial specific volume of all proteins were estimated using the program […]. All sedimentation profiles were collected with absorbance optics at 280 nm. The sedimentation coefficients c(s) distributions were calculated from raw data using the SEDFIT software package. The calculated distributions were integrated to establish the weight-average sedimentation coefficients corrected to 20 °C and the density of water, sw(20,w). The sw values were plotted as a function of Nedd4-2^355–455 or 14-3-3η concentration to construct sw isotherms. The resulting isotherms were fitted with a A + B ⇌ AB model, as implemented in the SEDPHAT software package with previously known sw values of each component. The parameters were verified, and the loading concentrations were corrected using global Lamm-equation modeling, also implemented in the SEDPHAT software[66]

[6] = frames from the right side of the elution peak
[7] = frames from the top of the elution peak

Molecule | Kd (14-3-3η [1]) | complex formation on native TBE-PAGE (14-3-3η [2]) | Dmax [3, 6] | Rg (GNOM) [3, 6] | VP (Porod volume) [3, 6] | Rg (Guinier approximation) [3, 6] | Dmax [3, 7] | Rg (GNOM) [3, 7] | VP (Porod volume) [3, 7] | Rg (Guinier approximation) [3, 7] | maximum particle dimension Dmax ([3]; from P(r) functions) | complex formation on native TBE-PAGE, all isoforms [4] | f/f0 ([5]; SV-AUC c(s) analysis) | weight-averaged sedimentation coefficient sw(20,w), unit not given ([5]; corrected to 20.0 °C and density of water)
B1 | ~50 nM | phosphorylation-dependent interaction | 16.9 nm | 4.54 ± 0.02 nm | 192 nm^3 | 4.39 ± 0.02 nm | 18.3 nm | 4.92 ± 0.01 nm | 218 nm^3 | 4.67 ± 0.01 nm | 169 Å |  |  | 
B2 |  |  |  |  |  |  |  |  |  |  |  | forms stable complexes | 1.5 | 1.4 S
